{
  "source": "patent US11236354B2",
  "about": "“Glyphosate-n-acetyltransferase (GLYAT) sequences and methods of use” (PIONEER HI-BRED INTERNATIONAL, INC., priority 2013, dated 2022)",
  "key": {"[1]": {"test_system": "N[C@@H](CC(=O)O)C(=O)O", "experiment": "cells, lysate or membranes named", "conditions": "37.0 °C"}, "[2]": {"test_system": "O=C(O)CNCP(=O)(O)O", "experiment": "cells, lysate or membranes named", "conditions": "37.0 °C"}, "[3]": {"test_system": "O=C(O)CNCP(=O)(O)O", "experiment": "Substrate saturation kinetic analysis of purified GLYAT", "type": "biochemical", "conditions": "other: SEQ ID NO:26, pH 7.0, non-varied substrate saturating, 37.0 °C", "description": "E. coli cultures in LB or 2×YT were grown overnight at 37° C. to saturation. The cells were used as a 2% inoculum into fresh media. When OD reached 0.6, IPTG was added to 0.2 mM and growth was continued for at least 6 hours. Cells were harvested by centrifugation and stored at −80° C. Cells were lysed with BPER (Pierce) containing 1 mM dithiothreitol, 0.2 mg/ml lysozyme, 2 mg/ml protease inhibitor cocktail (Sigma bacterial cell cocktail, P8465) and endonuclease. Lysate supernatants were passed through a column of NHS-activated Agarose (Thermo, #26197) derivatized with coenzyme A. Columns were washed with 25 mM Hepes, pH 7, containing progressively higher concentrations of KCl, then eluted with 25 mM Hepes, 100 mM KCl, 10% ethylene glycol and 1 mM acetyl CoA. Purity as evaluated by polyacrylamide gel electrophoresis was deemed consistently high enough to be assumed to be 100%. Protein concentration was determined with the Bradford assay using a large-scale lot of produced GLYAT protein as standard.\nKinetic parameters for various substrates were obtained using a range of seven substrate concentrations plus a blank containing none of the varied substrate. The non-varied substrate was present at a saturating concentration. Six-microliter aliquots of 50-fold concentrated stock solutions of the varied substrate were placed in a 96-well assay plate (Greiner BioOne UV-Star). Reactions were started with the addition of 294 ul of 25 mM Hepes, pH 7.0, 100 mM KCL, 10% ethylene glycol, the non-varied substrate and 10 to 200 nM enzyme. Absorbance was monitored for one minute with a Spectramax 384 Plus plate reader (Molecular Devices). If the amino acid present at position 30 (29 if alanine is absent at position 2) was cysteine, absorbance was monitored at 235 nm, which directly detects cleavage of the sulfoester bond of acetyl CoA. If the amino acid present at position 30 (29 if alanine is absent at position 2) was isoleucine, 0.5 mM 5,5′-dithiobis-(2-nitrobenzoic acid), which reacts with the coenzyme A thiol generated in the enzyme catalyzed reaction, was included in the reaction mix and absorbance was monitored at 412 nm. Initial rates were processed by the Softmax software to obtain kinetic parameters, using the double-reciprocal transformation.\nThe sequences with the new substitutions were derived through a combination of saturation mutagenesis of an already fit protein (SEQ ID NO:26) and an effective screening cascade as a means of identifying the improved genes (Examples 1-2). Regions in which novel changes are concentrated include helix H2a (positions 23 and 25-29) and the hairpin formed by strands B6 and B7 (positions 124-144). These two structures are components of the amino substrate binding site. Helix H3, the backbone to which the central beta sheet is anchored, is a region where 24% of the novel substitutions (17 out of 71) disclosed in Table 4 are concentrated into 11% of the positions (16 out of 146). None of those are near enough to the active site to influence substrate specificity directly. In three cases, multiple novel substitutions were discovered immediately or nearly adjacent to conserved amino acids shown previously to contribute to the catalytic mechanism (Siehl D L et. al., J Biol Chem, 282:11446, 2007). The catalytic amino acids for which this is the case are R21, R111, H138 and the nearby positions with multiple substitutions are 23, 112 and 137. The diverse amino acids at these positions may influence the orientation of the neighboring catalytic amino acids so as to selectively optimize catalysis with the preferred substrate, glyphosate."}, "[4]": {"conditions": "other: SEQ ID NO:9, pH 7.0, non-varied substrate saturating"}, "[5]": {"conditions": "other: SEQ ID NO:6, pH 7.0, non-varied substrate saturating"}, "[6]": {"conditions": "other: SEQ ID NO:4, pH 7.0, non-varied substrate saturating"}, "[7]": {"conditions": "other: SEQ ID NO:3, pH 7.0, non-varied substrate saturating"}, "[8]": {"conditions": "other: SEQ ID NO:5, pH 7.0, non-varied substrate saturating"}},
  "data": [
    {"substance": "GLYAT variant SEQ ID NO:9 (derived from SEQ ID NO:1 and 2) (Bacillus licheniformis DSM 13 = ATCC 14580; A28V/D131E/E119K/E14D/E65Q/E67K/E68K/G37R/G38S/I132T/I135A/I15L/I19V/I53V/I91V/K101R/K144R/K58Q/L105M/L26I/L97I/M75V/R47G/R92K/T89S/V114A/Y130F/Y45F)", "values": [
      {"measurement": "Km", "setting": "[1]; [4]", "result": 78700, "unit": "µM"},
      {"measurement": "kcat", "setting": "[1]; [4]", "result": 2.58, "unit": "s⁻¹"},
      {"measurement": "kcat/Km", "setting": "[1]; [4]", "result": 33.3, "unit": "M⁻¹ s⁻¹"},
      {"measurement": "Km", "setting": "[2]; [4]", "result": 250, "unit": "µM"},
      {"measurement": "kcat", "setting": "[2]; [4]", "result": 11.6, "unit": "s⁻¹"},
      {"measurement": "kcat/Km", "setting": "[2]; [4]", "result": 45430, "unit": "M⁻¹ s⁻¹"}
    ]},
    {"substance": "GLYAT variant SEQ ID NO:6 (derived from SEQ ID NO:1 and 2) (Bacillus licheniformis DSM 13 = ATCC 14580; A28V/D131E/E119K/E14D/E65Q/E67K/E68K/G37R/I132T/I135A/I15L/I19V/I53V/I91V/K101R/K144R/K58Q/L105M/L106I/L26I/L36T/L97I/M75A/R47G/R92K/T89S/V114A/V4I/Y130F/Y45F/Y46C)", "values": [
      {"measurement": "Km", "setting": "[1]; [5]", "result": 66800, "unit": "µM"},
      {"measurement": "kcat", "setting": "[1]; [5]", "result": 0.183, "unit": "s⁻¹"},
      {"measurement": "kcat/Km", "setting": "[1]; [5]", "result": 2.67, "unit": "M⁻¹ s⁻¹"},
      {"measurement": "Km", "setting": "[2]; [5]", "result": 2240, "unit": "µM"},
      {"measurement": "kcat", "setting": "[2]; [5]", "result": 11.2, "unit": "s⁻¹"},
      {"measurement": "kcat/Km", "setting": "[2]; [5]", "result": 5130, "unit": "M⁻¹ s⁻¹"}
    ]},
    {"substance": "GLYAT variant SEQ ID NO:4 (derived from SEQ ID NO:1 and 2) (Bacillus licheniformis DSM 13 = ATCC 14580; D131E/E14D/E65Q/E67K/E68K/G37R/G38S/I132T/I135A/I15L/I19V/I53V/I91V/K101R/K144R/K58Q/L105M/L26I/L36T/L97I/M75V/R47G/R92K/T33S/T89S/V114A/Y130F/Y31F/Y45F)", "values": [
      {"measurement": "Km", "setting": "[1]; [6]", "result": 78300, "unit": "µM"},
      {"measurement": "kcat", "setting": "[1]; [6]", "result": 2.27, "unit": "s⁻¹"},
      {"measurement": "kcat/Km", "setting": "[1]; [6]", "result": 29, "unit": "M⁻¹ s⁻¹"},
      {"measurement": "Km", "setting": "[2]; [6]", "result": 1960, "unit": "µM"},
      {"measurement": "kcat", "setting": "[2]; [6]", "result": 26.88, "unit": "s⁻¹"},
      {"measurement": "kcat/Km", "setting": "[2]; [6]", "result": 13800, "unit": "M⁻¹ s⁻¹"}
    ]},
    {"substance": "GLYAT (glyphosate-N-acetyltransferase), parent of saturation mutagenesis (already fit protein), SEQ ID NO:26 (derived from SEQ ID NO:1 and 2) (Bacillus licheniformis DSM 13 = ATCC 14580; A28V/C29I/D131E/E14D/E65Q/E67K/E68K/E83D/G37R/I132T/I135A/I15L/I19V/I53V/I91V/K101R/K144R/K58Q/L105M/L26I/L97I/M75V/R47G/R92K/T89S/V114A/Y130F/Y45F)", "values": [
      {"measurement": "Km", "setting": "[3]", "result": 220, "unit": "µM"},
      {"measurement": "kcat", "setting": "[3]", "result": 9.33, "unit": "s⁻¹"},
      {"measurement": "kcat/Km", "setting": "[3]", "result": 41750, "unit": "M⁻¹ s⁻¹"}
    ]},
    {"substance": "GLYAT variant SEQ ID NO:3 (derived from SEQ ID NO:1 and 2) (Bacillus licheniformis DSM 13 = ATCC 14580; A28V/D131E/E119K/E14D/E65Q/E67K/E68K/E83D/G37R/I132T/I135V/I15L/I19V/I2L/I53V/I91V/K101R/K144R/K58Q/L105M/L106I/L26I/L97I/M75V/R47G/R92K/T89S/V114A/Y130F/Y45F)", "values": [
      {"measurement": "Km", "setting": "[1]; [7]", "result": 35100, "unit": "µM"},
      {"measurement": "kcat", "setting": "[1]; [7]", "result": 2.72, "unit": "s⁻¹"},
      {"measurement": "kcat/Km", "setting": "[1]; [7]", "result": 77.8, "unit": "M⁻¹ s⁻¹"},
      {"measurement": "Km", "setting": "[2]; [7]", "result": 600, "unit": "µM"},
      {"measurement": "kcat", "setting": "[2]; [7]", "result": 11.6, "unit": "s⁻¹"},
      {"measurement": "kcat/Km", "setting": "[2]; [7]", "result": 19320, "unit": "M⁻¹ s⁻¹"}
    ]},
    {"substance": "GLYAT variant SEQ ID NO:5 (derived from SEQ ID NO:1 and 2) (Bacillus licheniformis DSM 13 = ATCC 14580; A28V/D131E/E14D/E65Q/E67K/E68K/G37R/I132T/I135A/I15L/I19V/I53V/I91V/K101R/K144R/K58Q/L105M/L106I/L26I/L97I/M75V/R47G/R92K/T89S/V114A/Y130F/Y45F)", "values": [
      {"measurement": "Km", "setting": "[1]; [8]", "result": 79100, "unit": "µM"},
      {"measurement": "kcat", "setting": "[1]; [8]", "result": 3.58, "unit": "s⁻¹"},
      {"measurement": "kcat/Km", "setting": "[1]; [8]", "result": 45.3, "unit": "M⁻¹ s⁻¹"},
      {"measurement": "Km", "setting": "[2]; [8]", "result": 230, "unit": "µM"},
      {"measurement": "kcat", "setting": "[2]; [8]", "result": 16.98, "unit": "s⁻¹"},
      {"measurement": "kcat/Km", "setting": "[2]; [8]", "result": 76470, "unit": "M⁻¹ s⁻¹"}
    ]}
  ]
}
